These results are taken from patent publication US8591913B2, “Methods of decreasing adipose tissue” (Toru Miyazaki, priority 2009, dated 2013).

One series relates to 3T3-L1 preadipocytes. Put plainly: Differentiation of 3T3-L1 preadipocytes into mature adipocytes, oil-red-o staining. The class given is cell-based, mouse. Here is the method: In order to examine how AIM produced by the macrophages infiltrating the adipose tissues works on surrounding adipocytes, an experiment in which AIM was loaded during a culture process of differentiating 3T3-L1 preadipocytes into the mature adipocytes was performed.
A recombinant mouse AIM protein and a recombinant human AIM protein were used as AIM. Those recombinant AIM proteins were prepared by culturing human-derived HEK293T cells transfected with a vector expressing mouse AIM or human AIM and isolating and purifying the protein from its culture supernatant. The same recombinant AIM proteins were also used as AIM in other examples shown below. AIM was loaded by adding AIM at a concentration of 5 μg/mL to the culture medium.
Differentiation induction (Induction) of the 3T3-L1 cells was initiated by first culturing the 3T3-L1 cells for 4 days (day −2 to day 2) to proliferate the cells (Cell proliferation) and subsequently culturing the cells in a culture medium containing insulin, dexamethasone (DEX), and isobutylmethylxanthine (IBMX) for 2 days (day 2 to day 4). The differentiation induction was further continued by culturing the cells in a culture medium containing insulin for 2 days (day 4 to day 6).
After the period of the differentiation induction (day 2 to day 6), the culture was continued in a culture medium not containing those differentiation-inducing factors. Then, the cells on the 10th day (day 12) after the initiation of the stimuli for differentiation induction were stained with oil-red-o, and the differentiation of the 3T3-L1 cells to mature adipocytes was observed.
In addition, using a FAS inhibitor (C75) in place of AIM, the FAS inhibitor at a concentration of 25 μM was loaded according to the schedules (d) and (f), and as was the case with the above-mentioned AIM, the cells were collected on the 2nd day (day 4: schedule (d)) and 10th day (day 12: schedule (f)) after the initiation of the differentiation induction, and the enzyme activity of FAS was measured.
FIG. 12A and FIG. 12B show the results of staining the cells with oil-red-o and analyzing the gene expression by RT-PCR on the 2nd day (day 4) after the initiation of the differentiation induction in the case of loading no AIM according to the schedule (a) (None), the case of loading AIM according to the schedule (d) (AIM (5 μg/mL)), and the case of loading the FAS inhibitor according to the schedule (d) (C75 (25 μM)), respectively.

In the next series the test system is obese AIM-/- mice. Put plainly: Intravenous administration of AIM to obese AIM-/- mice. The class given is in vivo, mouse. As for the experimental part:
Obese AIM^−/− mice were produced by giving HFD for 20 weeks or more. Meanwhile, a purified recombinant mouse AIM protein was prepared, and an AIM solution in which the AIM protein had been dissolved at a concentration of 0.2 mg/mL in phosphate buffered saline (PBS, pH 7.4) was prepared as an injection. Then, the AIM injection was administered to the mice from the tail vein twice a week for 4 weeks.
A dosage was 1 μg per 1 g of the body weight of the mouse. The dosage was determined based on the AIM concentration in the culture medium in the above-mentioned in vitro experiments, by considering that the AIM concentration in the blood of the mouse was a similar level to the AIM concentration in the culture medium.
In addition, as a control, the same amount of bovine serum albumin (BSA) was administered via the tail vein in the same schedule to the obese AIM^−/− mice produced by giving HFD for 20 weeks or more. Then, the body weight of the mice after being administered was measured, and the visceral white adipose tissue was collected and its weight was measured.
FIG. 22A and FIG. 22B show the results of observing adipose tissue sections stained with hematoxylin and eosin (HE) under a microscope.

Series [1] relates to mature adipocytes (differentiated 3T3-L1 cells). Put plainly: Induction of lipolysis in mature 3T3-L1 adipocytes (lipid droplets, glycerol and free fatty acid efflux). The class given is cell-based, mouse. Here is the method:
The effect of AIM on mature adipocytes was examined.
Then, the cells on the 10th day (day 12) after the initiation of the stimuli for differentiation induction were stained with oil-red-o. The number of cells having lipid droplets was counted. Further, the diameter of lipid droplets was measured in the cells having lipid droplets. For comparison, the number of the cells was counted and the diameter of lipid droplets was measured for the cells cultured in the above-mentioned schedules (a) and (d).
Further, the supernatant of the culture medium after the cells were cultured while loading AIM according to the schedule (e) was collected, and amounts of glycerol and free fatty acid (FFA) contained in the supernatant were measured by ELISA. For the comparison, the amounts of glycerol and free fatty acid in the culture supernatant obtained according to the schedule (a) were also measured.
In order to avoid adsorption of free fatty acid to albumin contained in the culture medium, the culture medium supplemented with 10% FBS (fetal bovine serum) was exchanged to a serum-free culture medium on the 10th day (day 12) after the initiation of the differentiation induction, further the cells were cultured in the serum-free culture medium for 6 hours, and subsequently the amounts of glycerol and free fatty acid contained in the supernatant of the serum-free culture medium were measured.
FIG. 7A and FIG. 7B illustrate the evaluation results of the number (per 10^4 μm^2) of cells having lipid droplets (Droplet (+) cells) and the relative diameter of lipid droplets (%) obtained according to the schedules (a), (d), and (e) (Exp. a, d, and e), respectively. The relative diameter of lipid droplets illustrated in FIG. 7B was calculated by defining the diameter of lipid droplets in the cells obtained according to the schedule (a) without AIM loading as 100%. FIG. 8A and FIG. 8B illustrate the concentration of glycerol (Glycerol Efflux, mM) and the concentration of free fatty acid (FFA Efflux, ×10 mM) in the culture medium obtained according to the schedules (a) and (e) (Exp. a and e), respectively.
In addition, FIG. 13A and FIG. 13B illustrate the results of measuring the glycerol concentration (glycerol efflux, mM) and the free fatty acid concentration (FFA efflux, ×10 mM) in the culture medium on the 10th day (day 12) after the initiation of the differentiation induction in the case of loading no AIM according to the schedule (a) (None), the case of loading AIM according to the schedule (f) (AIM), and the case of loading the FAS inhibitor according to the schedule (f) (C75), respectively.

For the next series, the target named is T1, CD36 (Mus musculus, UniProt Q08857).
T1 construct: endogenous in cells; host or cells: differentiated 3T3-L1 adipocytes
Put plainly: Incorporation of intravenously injected rAIM into adipose tissue of CD36-/- and CD36+/+ mice. To be noted: mouse rAIM 300 μg/mouse intravenous, 16 hours, epididymal adipose tissue. The class given is in vivo. As for the experimental part:
Mouse rAIM was intravenously injected into each of a CD36^−/− mouse which was deficient for CD36 and a wild-type CD36^+/+ mouse, and the incorporation of rAIM into the adipose tissues was analyzed. That is, an injection prepared by dissolving rAIM in PBS was intravenously injected into each of the CD36^−/− mouse and the CD36^+/+ mouse (300 μg/mouse). At 16 hours after the injection, the mice were sacrificed, and tissue sections were made from their epididymal adipose tissue. Then, the tissue sections were stained with an anti-AIM antibody.

[2] abbreviates: AIM iv versus albumin, HE-stained sections.
[3] abbreviates: mouse AIM 1 μg per 1 g body weight, tail vein, twice a week for 4 weeks, versus BSA.
[4] abbreviates: mouse AIM, schedule (e), compared with schedule (a).

Entries after “also recorded” stand apart in the source; their conditions may differ.

T1 sequence (Q08857 whole entry): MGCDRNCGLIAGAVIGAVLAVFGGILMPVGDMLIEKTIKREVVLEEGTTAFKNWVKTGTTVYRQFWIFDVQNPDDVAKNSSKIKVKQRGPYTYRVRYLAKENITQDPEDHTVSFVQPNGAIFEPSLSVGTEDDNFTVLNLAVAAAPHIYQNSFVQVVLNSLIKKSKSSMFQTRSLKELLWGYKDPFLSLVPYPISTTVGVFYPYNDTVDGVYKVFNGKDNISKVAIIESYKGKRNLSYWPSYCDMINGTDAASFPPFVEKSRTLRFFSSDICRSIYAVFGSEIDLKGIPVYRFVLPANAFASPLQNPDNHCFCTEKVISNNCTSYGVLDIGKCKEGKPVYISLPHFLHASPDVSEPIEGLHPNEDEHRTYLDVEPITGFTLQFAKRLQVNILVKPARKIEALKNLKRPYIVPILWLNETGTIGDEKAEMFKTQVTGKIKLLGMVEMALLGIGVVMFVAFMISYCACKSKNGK

B1: AIM: apoptosis inhibitor of macrophage, secretory protein with three SRCR domains; recombinant mouse and human AIM in Example 2, mouse AIM in Examples 3-16 (protein)
chain: ESPTKVQLVGGAHRCEGRVEVEHNGQWGTVCDDGWDRRDVAVVCRELNCGAVIQTPRGASYQPPASEQRVLIQGVDCNGTEDTLAQCELNYYVFDCSHEEDAGAQCENPDSDLLFIPEDVRLVDGPGHCQGRVEVLHQSQWSTVCKAGWNLQVSKVVCRQLGCGRALLTYGSCNKNTQGKGPIWMGKMSCSGQEANLRSCLLSRLENNCTHGEDTWMECEDPFELKLVGGDTPCSGRLEVLHKGSWGSVCDDNWGEKEDQVVCKQLGCGKSLHPSPKTRKIYGPGAGRIWLDDVNCSGKEQSLEFCRHRLWGYHDCTHKEDVEVICTDFDV
For B1, the “increase of the number of dead cells due to the loading of AIM” value in the series on 3T3-L1 preadipocytes (3T3-L1 cells loaded with AIM) is “not observed”. Also, the “differentiation of the 3T3-L1 cells to the mature adipocytes” value with 3T3-L1 preadipocytes (AIM continuously loaded day -2 to day 12, data not shown) is listed as “completely inhibited”. Further, in the series on 3T3-L1 preadipocytes (mouse or human rAIM 5 μg/mL, schedule (b): day 2 to day 12, stained day 12), the “differentiation of the 3T3-L1 cells” value is on record as “almost completely inhibited”. Also, in the series with 3T3-L1 preadipocytes (mouse or human rAIM 5 μg/mL, schedule (d): early phase of differentiation induction only (day 2 to day 4), stained day 12), the “differentiation of the 3T3-L1 cell” value is given as “almost completely inhibited”. Further, in the series on 3T3-L1 preadipocytes (schedule (c): AIM only before differentiation induction (day -2 to day 2)), the “differentiation of the 3T3-L1 cells to the mature adipocytes” value is “not inhibited”. In addition, in the series on obese AIM-/- mice (setting [2]), the “accumulation of macrophages in the adipose tissues” value was “remarkable accumulation” and the “size of adipocytes in the adipose tissues” value is “remarkably reduced”. Also, the “amount of food intake” value in the series with obese AIM-/- mice (administration of AIM, iv) is “No change”. Moreover, the “histology of adipose tissues, observed locally (in a spotty pattern)” value in the series on obese AIM-/- mice (mouse AIM 1 μg per 1 g body weight, tail vein, twice a week for 4 weeks) is “shrinkage and lysis of adipocytes”. Also, in the series with obese AIM-/- mice (setting [3]), the body weight entry is “no significant difference” and the “total weight of the adipose tissue” value is “no significant difference”. In the series on obese AIM-/- mice (systemic intravenous administration of purified AIM protein), the “lipolysis in the adipose tissues of the obese mouse” value is “induced lipolysis”. In series [1] (setting [4]), the “concentration of free fatty acid in the culture supernatant” value was “remarkably increased” and the “concentration of glycerol in the culture supernatant” value was “remarkably increased”. Also, the “diameter of lipid droplets contained in adipocytes, relative to schedule (a)” value in series [1] (mouse AIM, schedule (e): day 6 to day 12, schedule (a) without AIM defined as 100%) is on record as “about 25%”. Also, in series [1] (mouse AIM, schedule (e): day 6 to day 12 after differentiation, compared with schedule (a) without AIM), the “number of the cells having lipid droplets” value is on record as “remarkably decreased”.

B2: mouse AIM: protein consisting of the amino acid sequence shown in SEQ ID NO: 5; recombinant, purified from HEK293T culture supernatant (protein)
chain: MAPLFNLMLAILSIFVGSCFSESPTKVQLVGGAHRCEGRVEVEHNGQWGTVCDDGWDRRDVAVVCRELNCGAVIQTPRGASYQPPASEQRVLIQGVDCNGTEDTLAQCELNYYVFDCSHEEDAGAQCENPDSDLLFIPEDVRLVDGPGHCQGRVEVLHQSQWSTVCKAGWNLQVSKVVCRQLGCGRALLTYGSCNKNTQGKGPIWMGKMSCSGQEANLRSCLLSRLENNCTHGEDTWMECEDPFELKLVGGDTPCSGRLEVLHKGSWGSVCDDNWGEKEDQVVCKQLGCGKSLHPSPKTRKIYGPGAGRIWLDDVNCSGKEQSLEFCRHRLWGYHDCTHKEDVEVICTDFDV
modifications: mouse
notes: recombinant, purified from HEK293T culture supernatant
Regarding B2, the “differentiation of 3T3-L1 cells derived from mice / differentiation inhibitory function” value in the series on 3T3-L1 preadipocytes (mouse AIM and human AIM compared, in vitro) was “inhibited; also recorded: similarly exerted”. The “lipolysis induction function in adipocytes derived from mice” value in series [1] (mouse AIM and human AIM compared, same range of concentrations in vitro) was “similarly exerted”. For the same molecule, the “amount of rAIM internalized into the adipocytes, CD36-/- mouse compared with CD36+/+ mouse” value in the series with CD36 is given as “remarkably smaller”.
